The source of these data is patent publication US20240117055A1.

Test [1] addresses Recombinant Human Axl Protein Axl-tag 5 (human) (UniProt P30530). Briefly: competition ELISA on immobilized Axl-tag 5; unlabeled antibody 50 ug/mL; competitor Biot-M77-297b81.1.1 (1 ug/mL).
Test [2] has the same target. Briefly: competition ELISA on immobilized Axl-tag 5; unlabeled antibody 50 ug/mL; competitor Biot-M77-297b81.1.1 (1 ug/mL), whose signal is read.
The target is the same in test [3]. Briefly: competition ELISA on immobilized Axl-tag 5; unlabeled antibody 50 ug/mL; competitor Biot-v77-2a37.1 (1 ug/mL).
Test [4] shares this target. The experiment in a line: competition ELISA on immobilized Axl-tag 5; unlabeled antibody 50 ug/mL; competitor Biot-v77-2a37.1 (1 ug/mL), whose signal is read. Background: ELISA stands for enzyme-linked immunosorbent assay.

Sequence of UniProt P30530 (P30530 26-451): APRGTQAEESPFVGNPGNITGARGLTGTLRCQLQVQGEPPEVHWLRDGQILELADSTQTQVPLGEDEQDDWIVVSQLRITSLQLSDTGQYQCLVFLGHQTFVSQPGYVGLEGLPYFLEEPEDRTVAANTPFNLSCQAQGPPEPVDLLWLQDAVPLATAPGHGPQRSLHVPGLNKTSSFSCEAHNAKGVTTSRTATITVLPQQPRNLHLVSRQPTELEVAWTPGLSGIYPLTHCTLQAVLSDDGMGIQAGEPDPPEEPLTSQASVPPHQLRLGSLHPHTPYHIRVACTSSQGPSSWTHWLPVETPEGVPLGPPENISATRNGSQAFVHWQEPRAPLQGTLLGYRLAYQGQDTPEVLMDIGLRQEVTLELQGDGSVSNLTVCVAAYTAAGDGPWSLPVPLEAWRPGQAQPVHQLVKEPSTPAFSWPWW

On to “Cell Signaling rabbit monoclonal anti-AXL antibody AXL(C89E7)”, for which the % competition turned out to be 1.5% in test [1] and 3.3% in test [3]. In addition, the values for the OD (650 nm) in test [2] and in test [4] were 2.13 OD (650 nm) and 1.81 OD (650 nm), respectively.
